Measurements reported in patent publication US20090099029.

Biological target: T1, Bovine, dephosphorylated, Myelin Basic Protein (MBP), P02687
T1 chain: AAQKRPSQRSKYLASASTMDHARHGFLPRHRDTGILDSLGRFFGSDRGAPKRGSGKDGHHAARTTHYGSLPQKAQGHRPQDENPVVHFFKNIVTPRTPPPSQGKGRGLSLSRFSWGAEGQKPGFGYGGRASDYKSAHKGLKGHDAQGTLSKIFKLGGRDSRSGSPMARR

Row | Protein | MBP Kinase Activity
1 | EPHA5 (protein) SGSCCECGCGRASSLCAVAHPSLIWRCGYSKAKQDPEEEKMHFHNGHIKLPGVRTYIDPHTYEDPNQAVHEFAKEIEASCITIERVIGAGEFGEVCSGRLKLPGKRELPVAIKTLKVGYTEKQRRDFLGEASIMGQFDHPNIIHLEGVVTKSKPVMIVTEYMENGSLDTFLKKNDGQFTVIQLVGMLRGISAGMKYLSDMGYVHRDLAARNILINSNLVCKVSDFGLSRVLEDDPEAAYTTRGGKIPIRWTAPEAIAFRKFTSASDVWSYGIVMWEVVSYGERPYWEMTNQDVIKAVEEGYRLPSPMDCPAALYQLMLDCWQKERNSRPKFDEIVNMLDKLIRNPSSLKTLVNASCRVSNLLAEHSPLGSGAYRSVGEWLEAIKMGRYTEIFMENGYSSMDAVAQVTLEDLRRLGVTLVGHQKKIMNSLQEMKVQLVNGMVPL | Negative
2 | IRAK4 (protein) MNKPITPSTYVRCLNVGLIRKLSDFIDPQEGWKKLAVAIKKPSGDDRYNQFHIRRFEALLQTGKSPTSELLFDWGTTNCTVGDLVDLLIQNEFFAPASLLLPDAVPKTANTLPSKEAITVQQKQMPFCDKDRTLMTPVQNLEQSYMPPDSSSPENKSLEVSDTRFHSFSFYELKNVTNNFDERPISVGGNKMGEGGFGVVYKGYVNNTTVAVKKLAAMVDITTEELKQQFDQEIKVMAKCQHENLVELLGFSSDGDDLCLVYVYMPNGSLLDRLSCLDGTPPLSWHMRCKIAQGAANGINFLHENHHIHRDIKSANILLDEAFTAKISDFGLARASEKFAQTVMTSRIVGTTAYMAPEALRGEITPKSDIYSFGVVLLEIITGLPAVDEHREPQLLLDIKEEIEDEEKTIEDYIDKKMNDADSTSVEAMYSVASQCLHEKKNKRPDIKKVQQLLQEMTAS | Strong
